# Experimental data taken from the DeepSol protein solubility set.
# Assay: soluble on expression in E. coli; label from the status in PepcDB or PDB records
row,Sequence,soluble on expression in E. coli
1,MAWPKVQPEVNIGVVGHVDHGKTTLVQAITGIWTSKHSEELKRGMTIKLGYAETNIGVCESCKKPEAYVTEPSCKSCGSDDEPKFLRRISFIDAPGHEVLMATMLSGAALMDGAILVVAANEPFPQPQTREHFVALGIIGVKNLIIVQNKVDVVSKEEALSQYRQIKQFTKGTWAENVPIIPVSALHKINIDSLIEGIEEYIKTPYRDLSQKPVMLVIRSFDVNKPGTQFNELKGGVIGGSIIQGLFKVDQEIKVLPGLRVEKQGKVSYEPIFTKISSIRFGDEEFKEAKPGGLVAIGTYLDPSLTKADNLLGSIITLADAEVPVLWNIRIKYNLLERVVGAKEMLKVDPIRAKETLMLSVGSSTTLGIVTSVKKDEIEVELRRPVAVWSNNIRTVISRQIAGRWRMIGWGLVEI,soluble
2,MSLAKSYNAGINIIPTPRSLEKREGSFKLSDGVSIGAITPEAKKIATYFAAKISLATGYDVKVEDKGEITLVLDSCATFSPEGYALDVESSRVQVTACSPRGLFYGMQSFLQLLPAEIESAGIVRDVDWEAPAANIIDSPRFAYRGIHMDPCRHFMTVEEVKKQIDVLSMFKINTIHWHLTDDQGWRIEIKQYPGLAEIGGRRIEGEGVEYGPFYYTQEEIKDIVSYAAERFITIIPELEIPGHELAAISAYPGLSCKGDPVTPRNIWGVEDIVMCPGKESVFTFLENVIDEMVALFPGTYFHIGGDECPKESWKSCPLCQKRILEEGIKPDGKHTSEQLLHTYVVERIGKYLARYDKKIIGWDEILEGKPDSTATIMSWRGDAGGISAALSGHDAIMSPGPNGLYLDYYQGDSKIEPIAIGGCSTLEKVYNYNPVPDTLVLIGKDHHIIGVQANNWSEYFYNNDIREYHMYPRSLALAEVAWTDAKRKNYVDFERRINNAYVRLDGHGVNYHIPLPEQPGGSCDHIAFTDSVSLEFTTSRPISLVYTLDGTEPGVSSEIYTSPLSFYQNGILKIASLLSSGKLSKVRTIQIEKQVLLPAVDVEGSFHGLNMEVTYGMFLNMQEFMKTGKSVDVSTDIRETGELTSFVPSTNSMRDVRQYAAVATGFIDIPENGEGHHHHHH,not soluble
3,SNALANRIENVVSQERTRKKFESLVSDSPDGIVHLTTNGTILSVNPSMAGRLGADPDTLVGQQLSAVMDSEAANQRLEAGKSAVENGTATRSEDAVGGRHYHNQYIPVDSHRKSDTFQLVSRDIT,soluble
4,MKVTAMDIYKLLPKTNCGKCGEASCMAFAAKLSQKEAELSACPQLKGADFEKLANMLAPAVREIKIGTGDRAVTIGGDEVLYRYELTYYNPTAVAVDLSDDMDDSAFDQKLVKIKNLEFERTGEILKLNAVALRNKSGDAEKFKKAAEKLKDSEIPVILCSFDPKAMDAALDVIGSKRPLIYAATENNIDEMSELALKHNCPISLFVPNDLEKMKQLSRKLRESGVKDIVLDPGTYIGEAIGDTMDNFIMIRRLAVEEKDDDFRFPILAVPAVCWINPEEDEILTKMKEATTAAALMNRYADVMILHGVDIWEMMPVLTLRQSLYTDPRKPQSVEAKIYEFGTVDENSPVIMTTNFALTYYTVAGDLKSGKVNCYLLVLDTNGKAVDVAVAGGQFNGKAAAELMKETGIEKLVNHKKLIIPGLAASVSGDIEDQSGWEVIVGTRDSSEVPAFLAKIW,not soluble
5,MSVNVRPVKRFVEEQKKKNPEIKLSEKATQLLTDMPKMDSPEKLFNLEDKIATEMGSDRIFEEFLQDYAFLRNAVEEYLDGKPTSSDTISKIARLRRNTRLTHYGTALMRKEVAERMENVDAKLLQLQNVTSEVQHIQKEIDRCLDFSAGDEELELVPFEQFHTEASEILANETADNEHEQYLARLKFENEQRRELLSTLNELEGRRNVLQSDIRGKEVRLQGLKPKLEDLTKVAEPVFEMVGAKFKDLSIEGEQRKLSLQLPAPLAVAHIHAAAYKEIHDGEYSKILRNFLYKYKLFEFRILGTNDTEKQSKDETEAMKRKRKEDETTQEKINKMASELLEVHPMSLEFEIECSENIKISMQIQYLTELKVTTAKWHINTDSKLKKSPFFSIDSLMSDLFENDTGDKCPNDVGEMKIEHLKMNFNSSAKQIGKPFKFIQEISGSEGETDRIGATEHLRKVITTIRTRISNRAVLDGIIRDLESKKTDDLNLEPEVKINSFKICDDESFIASIPTSLTKKISNSAATDRFSYKIEASDGNGRKLTAYISIPADYPRHTALFGIAAPEDSESSTEVARQIEDRLNTEAHYVDDVKSIKEQLSLLLKHIDLS,not soluble
6,MNSDDEIYMEGSASSEDDMDDECLSDDDGIARHDQSASDYLNKKDKDNEVLDHDSLEAEMKKAISEVEAVLQVKTGVCRILLHKYKWNKESLLERFYEHPDTIAFLIDAQVIPRQQEVIPAGDAECDICCSMDELSGLSCNHRACAECWQAYLTNKIVSDAQSEIECMAPNCKLLIEDEKVLSYISDPTMVSKYRKLMVASYVEINCLLRWCPGIDCGKAVKVSHWEPRLVVCSCGTCFCFSCGQNWHEPLNCRHLKKWIKKCQDDSETMNWINANTKDCPKCMIPIEKNGGCNRMLCTNSGCRYEFCWMCLEPWTKHGYQYACNGYDETAVKNPQDAQEISRANLKRYLFYFNRYMGHEQSLQLEGKLNIKVAKKMEQMENMSMSWIEVQFLRKAVDILSECRRTLMYTYAFAFYLKKDNNSIIFESNQANLEMETEQLSGFLERDLEDEDLVTLKQKVQDKYRYVEQRRKVLLDHCAEGAEQDIWQYND,not soluble
7,MSLELPILPTSVIGSYPKPRWLLRMYKLRELGKIPEEDFKEAVRDASISVLREHERAGIDIPWDGEMGRSEMTEYFTSKIKGFKFYGPVRVWGNAYFNKAAAVDKLEYEEPLVLDEFLWVKENTTREIVKIPITGPYTIAEWSFNEYYPDKESFVMDLAEIINKELKVLEKHGAKFVQLDEPAMLNHPSEVPLAVDAINRAVKGIKMKVGLHVCYSNYNLLADYFDEIKVTQFALEFANRNFRDMDFLKKLSNKELGFGVVDVHNPRVESVEEIRQAIKKVFTYLEPEWVYINPDCGLKLLDRKIAYQKLVNMVQAVRGVRKELEKEGKTTIEFRTLKDIEGHHHHHH,soluble
8,MGSDKIHHHHHHMTMKTRDKILLSSLELFNDKGERNITTNHIAAHLAISPGNLYYHFRNKSDIIYEIFQEYEKLVDYYLDIPEDRPITLEDMTFYLESVFDGLWSYRFFHRDLEYLLDSDPRLRQDYREFTNRCLAAINRIFAKLADAGIIQPQPEDLRSAMSLNVWLVITNWMAFLKTAHAAEEPASLSLTELKQGIYQVLTLEVPYLTPEYRERVLALREKYRPTLPEAQGISGVEA,not soluble
9,MLLEPLKQLKQADARLNMTQGVLEGVVGEELGVLPGMDSIFSMLELERLVGFFRQATRKNHKGKPFDVIIYDGISTEETLRMIGLSSKTRLYAKYLRSLAEKTDLGRLTSPSIMRFVDESMNINSNKSPFDGMTSPAMWDTLERFLETGASAWRDPERFRSFLVMDPNNPMSVKAALRYWGCTVQAGSHVSGAFAISSSHLTSQIPKADFVPLPFASASVPFTITGLDWDKILLDQANSSIRELLSETVSHGTSLTQTVMFDTAKKLVTLFMPGFEKSEIKLYQYRGGSELLIEAGDQRRVIHLPSQIQGKVGGAKFVDRSLIVTMR,soluble
10,MSLTDLIVTNGAVLTMDPARPEAEAVAVADGRITAVGSRAEIERLAGPRTDMIDAGGGTVLPGFVESHLHLVLGGAELAHLQLAGVHGVEALTRAAQSFAAAHPDRPLLMAQGGDYGLLDRPMTRQDLDAILPDRPFAITAPDHHTVWANTAALRAAGLIEGASMPHGHEVVMGADGRATGELREFEAFAPVIALGGEARLNLGIATGEEPSPWPDAAERAIDRAKIARGLAHCAAHGITSMVNMDGNRYTLELLRELQRAGGLTARIRVPFHFKPHMALADLARAEAMTRDFDDDWLACNFVKMFMDGVLDSGTAYRLDDYPDAPGWRSEPLFEPARFAEIATAVDRRGLQIAVHAIGCGAVRTTLDGYAAARAANGARDSRHRIEHIELIDRADIPRLAALGVVASLQPPHPPGAMDFPLQPTLDRIGRSRWPDAYLCRTLAEAGAPVVFASDWPVTDVSVLRGLQAALTRRPYEGAADERLTLAESLRAYTAGGAWANHRERLTGTLRAGLAADLAILDGRLEARAADSLGSLGVARTLCGGRTTHRREGHHHHHH,not soluble
11,MSDCNWTNPLCNTSLLLASGYALWSCASKKNKKETKTETKKSHDCPPQTIEPVKDEKNSNSEEKKTTSSNNEVPPQKKLIGNDEVKKEKKKSEDDLLDVKKTASKEDDKKRMDKKDPSKKLSKEKLREEKKEQSKKVNKEKKMNKSESVDEDNEQPPEPGSDPRKIWAFKAAKMKCQAISKLHQDKIKGYMPPNCTYTAYDANPDLNRYADVRCIEETRVVLKNHDRDYIHASWMRMPGKDQSTYITTQGPLPETLSDFWHMIYQEKIAYVLMLCTLFEGGVEKCALYYPEKLGEVVKFGKYEITLTECKEEAIAGTIWNALTVTNTEDASSEPLYMNHVQVPWWPDQLAPEDARPMIELYKWVKKVNPKETPICVHCSAGVGRTATFVGIDYATIRIMENPNIEMLDIVREMRAMRFQAVQSHMQFLFLYVVLMEYFIGEGVVERTGRVDTFMTQYKKHAQKKLAKRAAQNQQGEKLAAEEKEKDKVKV,soluble
12,MGSDKIHHHHHHGCKEKDMSMKMNEPHNIKGVISYKRSFGDLNDTHLSVAKKIGIRPLASRSEAEGLGGKLVQIKPCERYAMDSLTHSIPFLIPQASALLDTIGANFLDSLSCKGLNPNQIIVTSVLRTADDVKRLRRRNGNASANSAHAFGTTFDVSYRRFCKVEDPDGRPMQDVSPDTLKLVLAEVLRDLRKSDKCYIKYELKQGCFHITAR,not soluble
13,MDTLQNMRAFSSVAQAGSFTAAAAVLDTTTANVSRAVSNLEAHLQTRLLNRTTRRIALTEAGKRYLLRCEQILASVEEAEAEASDAHARPAGQLKVHSMPGVGQHYVIDAIARYRRNHPDVAFDLTMTHRVPDLLEEGFDVSIVLASELADSGFVSQRLGITYSIVCASPEYVKTFGMAHKPADLLNHACLRLVSPVFPLDKWLFDGPEGQEMVTINSSPLLVNSADAMKTAISSGMGIGILPIYSAIEGLRNGTLVRVLSDYRSQELNLYAIYPSRQYLDAKIRTWVEYLRGSLPEILAADEADLHVQALKASC,not soluble
14,MGSDKIHHHHHHMKIGILTFANVPNFGANLQALSTISYLQNHGYNPILIKWEPEDFEARFTSIKTQKQPQEHFHFVEKYLPQTKICRNDDDICQVIKDEKIEGIIIGSDAVLQCSSFWGRLDFPTKTVVRVNKTTSEREYPNAFWGTFYDKLGSKIPMVIMSASSQNAKYRLIARSVKHKMSNNLSHFEYISVRDIWTRDMITYITKGAIIPNITPDPVFAFNYNCAKFIPSKEDILLKYHLPENYVLVSMKCRMLDNMLWMDKLKSEMKKLYLECVALPMPTGIEFKHNFDFSITTPLPPLDWYALIKYAKGYIGENMHPIVVALHNAVPCFCFDTYGVLKYARCVCVEESSKIYDIMSRFSLLDNRINAYSRFWKCPPVDIVINRILHFDVIACQKTALNYYNNYEQMMSSILEVFKSK,not soluble
15,KKPIPTLFLHGFGGSANSEKFMVKQAEKRGVTKDIITAYVSKDGAVTFKGKLRKDAVNPIVKIELENNRQGYLDKNAAWFKNVLTKLQSEYNFDKFNFVGHSMGNLTFAQYMMTYGNDKSLPQLNKQVNIAGTFNGVLNMNEDVNEITVDKDGKPSRMNQPYQQLRVLKDIYKGKGIEVLNIYGDLKDGTHSDGRVSNSSSKSLKYLLGNSPKSYRESKYEGEPAQHSQLHENENVANELIDFLWKK,not soluble
16,MSSPSFPRVLIFDSGVGGLSVYREIEARLPQLNYIYLFDNAAYPYGELTQETLIARVDTLVTRMVEQERIDLVVIACNTASTIVLPVLRAKLTIPVVGVVPAIKPASLIASKAIGLIATPATVKRQYTQELIRDFSANKNVELLGSTRLVNMAEEKLRGKPLDLEELASILQPLKNTIDVAVLGCTHFPLIKEEIQQVLGEQVQLIDSGLAIARRVQELLGIEQAVGAKQKHRIYASAPPWEESALNIKLEQLGFNPVQPFLHPI,not soluble
